Results as given in publication PMC4499140 (Nucleic Acids Research, 2015).

Assays:
[1] = target: T1, Rv1222 (Mycobacterium tuberculosis H37Rv) (UniProt L0T905); test: fluorescence anisotropy
T1 sequence: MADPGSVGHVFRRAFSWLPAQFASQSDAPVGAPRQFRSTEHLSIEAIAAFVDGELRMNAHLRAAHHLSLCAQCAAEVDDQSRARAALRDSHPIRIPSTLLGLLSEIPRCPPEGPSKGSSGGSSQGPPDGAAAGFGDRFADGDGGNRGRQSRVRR

[2] = target: T2, Mycobacterium tuberculosis sigma factor A (Mycobacterium tuberculosis, UniProt P9WGI1 1-528); test: fluorescence polarisation
T2 sequence: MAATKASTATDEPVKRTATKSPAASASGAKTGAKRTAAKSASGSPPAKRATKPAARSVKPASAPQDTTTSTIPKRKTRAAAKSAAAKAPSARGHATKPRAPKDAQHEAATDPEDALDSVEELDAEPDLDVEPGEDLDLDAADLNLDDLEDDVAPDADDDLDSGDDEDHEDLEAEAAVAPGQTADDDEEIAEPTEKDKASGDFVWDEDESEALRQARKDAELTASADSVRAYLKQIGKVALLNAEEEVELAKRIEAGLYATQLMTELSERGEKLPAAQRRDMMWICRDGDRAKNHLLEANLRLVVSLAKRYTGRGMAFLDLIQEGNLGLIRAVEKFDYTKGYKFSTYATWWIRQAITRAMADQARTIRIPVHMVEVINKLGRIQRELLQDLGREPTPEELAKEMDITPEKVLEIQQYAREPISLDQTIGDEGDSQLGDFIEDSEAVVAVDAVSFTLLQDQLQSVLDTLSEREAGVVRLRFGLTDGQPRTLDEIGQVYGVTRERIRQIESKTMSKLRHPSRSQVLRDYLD

[3] = target: T3, Mycobacterium tuberculosis sigma factor E (Mycobacterium tuberculosis, UniProt P9WGG7 1-257); test: fluorescence polarisation
T3 sequence: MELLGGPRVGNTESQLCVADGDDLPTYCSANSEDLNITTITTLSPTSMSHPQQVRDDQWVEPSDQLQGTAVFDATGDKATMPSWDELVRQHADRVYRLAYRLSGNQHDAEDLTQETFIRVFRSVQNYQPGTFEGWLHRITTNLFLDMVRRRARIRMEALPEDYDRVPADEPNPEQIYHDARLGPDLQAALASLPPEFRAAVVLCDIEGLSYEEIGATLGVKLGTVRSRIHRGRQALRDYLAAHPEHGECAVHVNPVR

[4] = target: E. coli DNA polymerase (Klenow fragment) (E. coli, UniProt P00582 324-928); test: fluorescence polarisation
Chain of E. coli DNA polymerase (Klenow fragment) (P00582 324-928): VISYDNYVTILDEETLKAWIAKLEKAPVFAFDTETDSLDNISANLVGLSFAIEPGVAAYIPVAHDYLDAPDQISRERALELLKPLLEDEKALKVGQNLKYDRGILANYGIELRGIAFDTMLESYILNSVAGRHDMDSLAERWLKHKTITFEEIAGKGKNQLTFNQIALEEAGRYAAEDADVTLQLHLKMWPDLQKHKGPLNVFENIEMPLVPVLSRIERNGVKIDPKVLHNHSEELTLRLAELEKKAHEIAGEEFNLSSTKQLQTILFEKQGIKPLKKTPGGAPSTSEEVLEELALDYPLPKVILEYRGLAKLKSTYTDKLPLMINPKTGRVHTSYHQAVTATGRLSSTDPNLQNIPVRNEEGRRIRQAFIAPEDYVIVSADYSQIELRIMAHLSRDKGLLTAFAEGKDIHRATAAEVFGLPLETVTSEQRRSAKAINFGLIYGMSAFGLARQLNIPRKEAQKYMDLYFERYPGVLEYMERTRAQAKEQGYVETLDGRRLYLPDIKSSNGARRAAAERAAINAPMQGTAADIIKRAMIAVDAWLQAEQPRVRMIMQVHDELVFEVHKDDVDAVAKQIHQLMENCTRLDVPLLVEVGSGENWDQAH

Molecule	Kd [1]	Kd [2]	Kd [3]	Kd [4]
GTGAGTATCTCGCAGTCCGACGCGTCGTTGGCCGCCGTCCCCGCCGTGGATCAGTTCGATCCGTCGTCAGGTGCATCAGGTGGCTACGACACCCCGCTGGGCATCACCAATCCGCCCATCGACGAGTTGCTGGACCGCGTCTCGAGCAAATACGCCCTCGTGATCTATGCGGCAAAGCGTGCCCGGCAGATCAACGACTACTACAACCAGCTTGGCGAGGGCATCCTCGAATATGTCGGTCCGCTGGTTGAGCCGGGGTTGCAAGAGAAGCCGTTGTCCATCGCGTTGCGCGAGATCCACGCCGATCTGCTCGAGCACACCGAGGGCGAGTAG (double strand) [promoterless DNA fragment]	52 nM			
Rv1222 of Mycobacterium tuberculosis, TMR labelled (natural protein) MADPGSVGHVFRRAFSWLPAQFASQSDAPVGAPRQFRSTEHLSIEAIAAFVDGELRMNAHLRAAHHLSLCAQCAAEVDDQSRARAALRDSHPIRIPSTLLGLLSEIPRCPPEGPSKGSSGGSSQGPPDGAAAGFGDRFADGDGGNRGRQSRVRR		~690 nM	~270 nM	245 ± 78 nM
